Key:
[1] = molecular target: DENV-IV抗原(一种NS1蛋白，购自菲鹏) (dengue virus serotype 4 (DENV-IV)) (UniProt P09866)
[2] = molecular target: DENV抗原 (DENV阳性血清) (dengue virus (DENV), serotype not stated); test: sandwich ELISA, antibody at 12.5 ng/ml captured on goat anti-mouse IgG, DENV-positive serum, HRP-labelled DENV mAb
[3] = molecular target: DENV抗原 (DENV阳性血清) (dengue virus (DENV), serotype not stated); test: sandwich ELISA, antibody at 6.25 ng/ml captured on goat anti-mouse IgG, DENV-positive serum, HRP-labelled DENV mAb
[4] = molecular target: DENV抗原 (DENV阳性血清) (dengue virus (DENV), serotype not stated); test: sandwich ELISA, antibody at 3.125 ng/ml captured on goat anti-mouse IgG, DENV-positive serum, HRP-labelled DENV mAb
[5] = molecular target: DENV抗原 (DENV阳性血清) (dengue virus (DENV), serotype not stated); test: sandwich ELISA, antibody at 1.5625 ng/ml captured on goat anti-mouse IgG, DENV-positive serum, HRP-labelled DENV mAb
[6] = molecular target: DENV抗原 (DENV阳性血清) (dengue virus (DENV), serotype not stated); test: sandwich ELISA, antibody at 0.78125 ng/ml captured on goat anti-mouse IgG, DENV-positive serum, HRP-labelled DENV mAb
[7] = molecular target: DENV抗原 (DENV阳性血清) (dengue virus (DENV), serotype not stated); test: sandwich ELISA, antibody at 0 ng/ml (blank without antibody), goat anti-mouse IgG, DENV-positive serum, HRP-labelled DENV mAb

Sequence of UniProt P09866 (P09866 775-1126 limits assumed): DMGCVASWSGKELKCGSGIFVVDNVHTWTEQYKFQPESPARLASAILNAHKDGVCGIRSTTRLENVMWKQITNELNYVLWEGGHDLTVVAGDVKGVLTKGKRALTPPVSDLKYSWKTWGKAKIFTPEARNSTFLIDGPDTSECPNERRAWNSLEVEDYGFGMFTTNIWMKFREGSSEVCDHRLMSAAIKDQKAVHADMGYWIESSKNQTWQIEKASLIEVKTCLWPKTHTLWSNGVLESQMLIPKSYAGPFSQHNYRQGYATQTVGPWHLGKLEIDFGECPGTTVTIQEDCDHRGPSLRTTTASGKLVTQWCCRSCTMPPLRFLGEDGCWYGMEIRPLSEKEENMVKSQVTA

Kd [1]: 0.811 µM
koff [1]: 0.0019 s⁻¹
kon [1]: 2340 M⁻¹ s⁻¹
OD (450nm, 参考630nm) [2]: 1.54 OD
OD (450nm, 参考630nm) [3]: 0.996 OD
OD (450nm, 参考630nm) [4]: 0.692 OD
OD (450nm, 参考630nm) [5]: 0.48 OD
OD (450nm, 参考630nm) [6]: 0.317 OD
OD (450nm, 参考630nm) [7]: 0.045 OD
Substance: 对照抗体 (antibody)

Source: CN116082499A
